Data from US20240041988A1, “Use of elapidae postsynaptic neurotoxin in the treatment of over expression of inflammatory cytokines related diseases” (priority 2020, published 2024).

How the values were obtained:
[1] = system: interleukin 1 beta (IL-1 beta); test: Carrageenan pleural inflammation rat model, serum IL-1 beta by ELISA; type: in vivo, Wistar rats; conditions: rat tail vein blood 6 hours after carrageenan, n = 10, inflammation group 52.40 ± 6.74, saline control 35.20 ± 4.78
Procedure: (§1) 140 Wistar rats (200-240 g) are randomly divided into 14 groups, and each group is 10. The preparation method comprises the following steps: (group 1) only receiving sterile normal saline ([…]) (control group); (group 2) carrageenan inflammation modeling+oral normal saline 10 ml/kg (inflammation group); (Group 3) Carrageenan Inflammation modeling+oral Naja atra postsynaptic neurotoxin (SEQ ID NO 1) 200 μg/kg prepared into a liquid state and continuous intragastric administration performed; (Group 4) Carrageenan Inflammation modeling+oral Naja atra postsynaptic neurotoxin (SEQ ID NO 1) 800 μg/kg prepared into a liquid state and continuous intragastric administration performed. (Group 5-14) The postsynaptic neurotoxin of Bungarus multicinctus, Ophiophagus Hannah, Naja kaouthia, Dendroaspis polylepis, Bungarus fasclatus, through the same administration model, that means carrageenan inflammation modeling+oral administration of 200 μg/kg and 800 μg/kg two doses respectively and continuously intragastric administration, so that the rat is divided into 14 groups.
(§2) Except for the […], 0.1 ml of sterile normal saline+carrageenan (CG, 1%) is injected into the rest 13 groups through pleural cavities for inflammation modeling. The preparation method comprises the following steps: 1 hour before molding, orally administration of normal saline or different types of postsynaptic neurotoxin with different doses respectively in each group, 6 hours after the carrageenan injection, collecting rat tail vein blood to detect the concentration of IL-1 beta and TNF-alpha.
(§3) The serum of the collected rat tail vein blood is separated and collected by using a commercial ELISA assay kit, and biochemical evaluation is carried out on the concentration of the tumor necrosis factor alpha (TN F-alpha) and interleukin 1 beta (IL-1 beta) according to the instructions of experimental step of the kit's manufacturer.

[2] = system: tumor necrosis factor alpha (TNF-alpha); test: Carrageenan pleural inflammation rat model, serum TNF-alpha by ELISA; type: in vivo, Wistar rats; conditions: rat tail vein blood 6 hours after carrageenan, n = 10, inflammation group 61.30 ± 7.86, saline control 42.70 ± 5.93
Procedure: as §1, §2, §3

[3] = 200 μg/kg oral (intragastric) 1 hour before carrageenan
[4] = 800 μg/kg oral (intragastric) 1 hour before carrageenan

| Molecule | IL-1β blood average concentration (x ± s) [1, 3] | IL-1β blood average concentration (x ± s) [1, 4] [ng/L] | TNF-a blood average concentration (x ± s) [2, 3] [ng/L] | TNF-a blood average concentration (x ± s) [2, 4] [ng/L] |
| --- | --- | --- | --- | --- |
| SEQ ID No1 (protein, listed as Naja atra) LECHNQQSSQTPTTTGCSGGETNCYKKRWRDHRGYRTERGCGCPSVKNGIEINCCTTDRCNN | 45.40 ± 4.95 ng/L | 41.30 ± 4.31 | 53.70 ± 6.32 | 50.60 ± 5.89 |
| SEQ ID No20 (protein, listed as Bungarus fasclatus) RICLNQQQSTPEDQPTNGQCYIKTDCQNKTWNTHRGSRTDRGCGCPKVKPGINLRCCKTDKCNE | 44.10 ± 4.32 *^ ng/L | 40.80 ± 3.78 | 52.82 ± 6.55 | 47.81 ± 5.72 |
| SEQ ID No9 (protein, Ophiophagus hannah) TKCYKTGDRIISEACPPGQDLCYMKTWCDVFCGTRGRVIELGCTATCPTVKPHEQITCCSTDNCNPHPKMKQ | 44.50 ± 4.97 ng/L | 41.70 ± 4.23 | 54.80 ± 5.01 | 51.20 ± 5.76 |
